Data from publication PMC2662490.

Molecular target: FXR1P Nt-KH2–His6 (human)
Test: SAXS

Substance: FXR1P Nt-KH2–His6 (domain or fragment)
- stoichiometry N: 2
